We go through one molecule from patent publication US20100184658A1 (published 2010).

Targets include MAP4K5 (KHS1) (UniProt Q9Y4K4 1-846, limits assumed); AKT2 (PKB beta) (human (printed as (h)), UniProt P31751 1-481, limits assumed); MST4 (UniProt Q9P289 1-416, limits assumed); NEK7 (UniProt Q8TDX7 1-302, limits assumed); PRKCG (PKC gamma) (UniProt P05129 1-697, limits assumed); MELK (UniProt Q14680 1-340, limits assumed); PIM2 (UniProt Q9P1W9 1-311, limits assumed); CHEK2 (CHK2) (UniProt O96017 1-543, limits assumed); PRKCH (PKC eta) (UniProt P24723 1-683, limits assumed).

Holding throughout (test): cell-based or functional assay
Experiment [1] concerns the target RAF1 (cRAF) Y340D Y341D c-Raf (UniProt P04049 306-648, limits assumed).
The target in experiment [2] is SYK Spleen tyrosine kinase (UniProt P43405 1-635, limits assumed).
Experiment [3] deals with T1, NEK1 NIMA (never in mitosis gene a)-related kinase 1 (UniProt Q96PY6 1-505, limits assumed).
T1 sequence (looked up): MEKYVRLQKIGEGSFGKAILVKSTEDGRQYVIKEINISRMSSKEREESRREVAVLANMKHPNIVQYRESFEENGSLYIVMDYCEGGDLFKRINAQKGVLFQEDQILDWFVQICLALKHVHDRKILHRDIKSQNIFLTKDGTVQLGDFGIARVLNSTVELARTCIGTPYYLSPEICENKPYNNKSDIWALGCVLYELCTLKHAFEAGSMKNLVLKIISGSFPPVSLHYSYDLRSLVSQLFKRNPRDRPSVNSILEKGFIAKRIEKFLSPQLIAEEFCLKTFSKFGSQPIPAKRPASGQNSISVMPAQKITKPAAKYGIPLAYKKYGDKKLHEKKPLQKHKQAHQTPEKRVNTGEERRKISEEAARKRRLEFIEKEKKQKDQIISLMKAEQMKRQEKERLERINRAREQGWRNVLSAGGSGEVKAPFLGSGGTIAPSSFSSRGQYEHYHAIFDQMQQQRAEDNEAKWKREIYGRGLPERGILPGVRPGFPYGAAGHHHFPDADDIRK

The target in experiment [4] is T2, SGK2 Serum/glucocorticoid regulated kinase 2 (UniProt Q9HBY8 1-367, limits assumed).
T2 sequence (looked up): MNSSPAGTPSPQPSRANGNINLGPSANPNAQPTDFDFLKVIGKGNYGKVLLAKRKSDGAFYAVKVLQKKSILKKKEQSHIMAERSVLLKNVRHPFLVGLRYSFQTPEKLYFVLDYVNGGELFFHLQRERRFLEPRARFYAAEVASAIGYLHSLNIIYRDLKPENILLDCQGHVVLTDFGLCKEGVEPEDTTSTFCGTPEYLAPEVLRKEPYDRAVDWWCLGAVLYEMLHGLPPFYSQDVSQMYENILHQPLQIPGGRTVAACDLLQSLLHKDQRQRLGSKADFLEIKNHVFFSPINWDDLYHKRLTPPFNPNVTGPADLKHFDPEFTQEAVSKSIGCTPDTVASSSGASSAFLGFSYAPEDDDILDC

The target in experiment [5] is T3, SGK (SGK1) Serum/glucocorticoid regulated kinase (human (printed as (h)), UniProt O00141 60-431, limits assumed).
T3 sequence (looked up): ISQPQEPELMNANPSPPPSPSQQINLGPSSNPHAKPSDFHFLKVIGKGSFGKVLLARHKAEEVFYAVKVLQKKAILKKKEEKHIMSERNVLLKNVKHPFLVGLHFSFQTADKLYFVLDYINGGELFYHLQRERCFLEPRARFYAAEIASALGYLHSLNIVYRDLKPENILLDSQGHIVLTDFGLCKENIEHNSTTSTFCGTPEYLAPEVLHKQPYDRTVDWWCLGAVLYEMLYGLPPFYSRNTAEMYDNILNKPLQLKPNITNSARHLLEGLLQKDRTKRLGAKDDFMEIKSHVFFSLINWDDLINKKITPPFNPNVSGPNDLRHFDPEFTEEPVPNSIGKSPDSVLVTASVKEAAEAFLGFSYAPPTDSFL

Experiment [6] has as its target MAPK10 (JNK3) Mitogen-activated protein kinase 10 (UniProt P53779 1-464, limits assumed).
Experiment [7] deals with MAP3K9 (MLK1) Mitogen-activated protein kinase kinase kinase 9 (UniProt P80192 132-413, limits assumed).
Further: test concentration or dose not given here.

For the molecule SGRPPMIVWFNRPFLIAVSHTHGQTILFMAKVINPVGA [D3 peptide], the “% Inhibition mean” value in [1] came to 94.6%; in experiment [2], 54%; with MAP4K5 (KHS1) it was 86.3%; with AKT2 (PKB beta), 67.7%; in experiment [3] it was 84%; in the experiment with MST4, 101%. Moreover, the “% Inhibition mean” value in experiment [4] came out at 102%; in experiment [5], 100%; with NEK7 it was 73.8%; in experiment [6], 90.7%; in the experiment with PRKCG (PKC gamma), 81%; with MELK it was 85.8%. Further, the “% Inhibition mean” value with PIM2 was 89.9%; in experiment [7], 101%; with CHEK2 (CHK2), 62.1%; with PRKCH (PKC eta), 46.5%.
